In patent US20220363752A1 (VERSEAU THERAPEUTICS, published 2022):
Primed or numbered codes have the meaning given here. Biotin′ = not defined here

Experiments:
[1] = target: T1, LRRC25(21-40) biotin peptide (human, not fully specified; N-terminal NH2; C-terminal GGK-Biotin; native Cys changed to Ser); assay: peptide ELISA
T1 peptide: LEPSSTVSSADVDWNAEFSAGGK
Protocol: (§1) To establish if functional chimera anti-LRRC25 antibodies recognize particular regions of LRRC25, ELISA experiments were performed using 10 plate-immobilized 16- to 20-mer overlapping LRRC25(ECD) biotin peptides (Table 7). Biotinylated human LRRC25-His served as a positive control. A typical ELISA was performed by coating overnight at 4° C., 3 ug/mL/25 ul per well of streptavidin (Jackson Immunoresearch, Cat. #016-030-084) in PBS in half-area high binding microtiter wells (Corning Cat. #3690). […] Biotin peptides or biotinylated human LRRC25-His protein were added in duplicate (2 ug/mL/25 ul per well) in assay buffer (blocking buffer containing 0.05% tween 20) and the plate incubated for 45 min at 37° C. The plate was washed as before, 20 nM anti-LRRC25 antibodies in assay buffer added in duplicate into appropriate wells, and the plate incubated as before. The plate was washed and HRP-conjugated secondary antibody in assay buffer added [25 ul per well; goat anti-human IgG (Jackson Immunoresearch, Cat. #715-035-150)], and incubated as before. Antibody bound to plate-immobilized peptide(s) or protein was determined at A450 nm using HRP substrate (3,3′,5,5′-tetramethylbenzidine (TMB); eBioscience; Cat. #00-4201-56); 100 μl/well).

[2] = target: T2, LRRC25(36-55) biotin peptide (human, not fully specified; N-terminal NH2; C-terminal GGK-Biotin; native Cys changed to Ser); assay: peptide ELISA
T2 peptide: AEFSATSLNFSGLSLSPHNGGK
Protocol: as §1

[3] = target: T3, LRRC25(51-69) biotin peptide (human, not fully specified; N-terminal acetyl; C-terminal GGK-Biotin); assay: peptide ELISA
T3 peptide: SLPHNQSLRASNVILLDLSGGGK
Protocol: as §1

[4] = target: T4, LRRC25(66-85) biotin peptide (human, not fully specified; N-terminal acetyl; C-terminal GGK-Biotin); assay: peptide ELISA
T4 peptide: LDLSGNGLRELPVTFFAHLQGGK
Protocol: as §1

[5] = target: T5, LRRC25(81-100) biotin peptide (human, not fully specified; N-terminal acetyl; C-terminal GGK-Biotin); assay: peptide ELISA
T5 peptide: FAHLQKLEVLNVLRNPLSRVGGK
Protocol: as §1

[6] = target: T6, LRRC25(111-130) biotin peptide (human, not fully specified; N-terminal acetyl; C-terminal GGK-Biotin; native Cys changed to Ser); assay: peptide ELISA
T6 peptide: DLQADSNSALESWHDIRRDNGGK
Protocol: as §1

[7] = target: T7, LRRC25(126-145) biotin peptide (human, not fully specified; N-terminal acetyl; C-terminal GGK-Biotin; native Cys changed to Ser); assay: peptide ELISA
T7 peptide: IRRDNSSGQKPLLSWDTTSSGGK
Protocol: as §1

[8] = target: T8, LRRC25(141-159) biotin peptide (human, not fully specified; N-terminal acetyl; C-terminal GGK-Biotin; native Cys changed to Ser); assay: peptide ELISA
T8 peptide: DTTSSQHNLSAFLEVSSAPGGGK
Protocol: as §1

[9] = target: T9, LRRC25(150-165) biotin peptide (human); assay: peptide ELISA
T9 peptide: Ac-SAFLEVSSAPGLASATGG-{Biotin′}
Protocol: as §1

[10] = target: T10, His-tagged human LRRC25 extracellular domain protein, human LRRC25-His (human, UniProt Q8N386 21-165); assay: ELISA, plate-immobilized antigen
T10 construct: The entry holds the extracellular domain, a GSG linker and the His tag; also called LRRC25(ECD)-HIS
T10 sequence (Q8N386 other isoform, or with tags, fused parts or gaps): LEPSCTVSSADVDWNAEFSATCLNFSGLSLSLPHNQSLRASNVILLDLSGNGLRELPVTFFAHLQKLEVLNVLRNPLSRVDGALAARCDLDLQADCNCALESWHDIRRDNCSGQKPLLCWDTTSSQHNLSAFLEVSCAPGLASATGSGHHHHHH
Protocol: To establish the relative binding strengths of anti-LRRC25 antibodies against human LRRC25, and their cross-reactivity with cynomolgus monkey LRRC25, antibody binding curve analyses were performed and EC50 values against plate-immobilized recombinant human and cyno LRRC25 proteins were determined.
(§2) A typical ELISA was performed by coating overnight in PBS, pH 7.4, at 4° C. in high binding microtiter wells with 1 ug/mL/100 ul per well of human LRRC25-His or cyno LRRC25-His. An anti-human LRRC25 antibody (2A3, LS Bio, LS-C174039-100) and anti-HIS-HRP (Miltenyi Biotec; 130-092-783) served as coating controls for the human and cyno LRRC25 proteins, respectively. […] Anti-LRRC25 antibodies were added (100 ul per well) at 500 nM and serially diluted 3-fold in assay buffer (1% skimmed milk in PBS, pH 7.4). The plate was incubated with gentle agitation for 1 h at room temperature. The plate was washed 3× and HRP-conjugated secondary antibody in assay buffer added [100 ul per well; goat anti-human IgG (Jackson Immunoresearch, cat #715-035-150)], and the plate was incubated as before. Antibody bound to plate-immobilized LRRC25(ECD)-HIS was determined at A450 nm using HRP substrate (3,3′,5,5′-tetramethylbenzidine (TMB); eBioscience; 00-4201-56); 100 μl/well).

[11] = target: T11, His-tagged cynomolgus monkey LRRC25 extracellular domain protein, cyno LRRC25-His (cynomolgus monkey); assay: ELISA, plate-immobilized cyno LRRC25-His
T11 construct: The entry holds the extracellular domain, a GSG linker and the His tag
T11 sequence (chain, as listed by the source limits assumed): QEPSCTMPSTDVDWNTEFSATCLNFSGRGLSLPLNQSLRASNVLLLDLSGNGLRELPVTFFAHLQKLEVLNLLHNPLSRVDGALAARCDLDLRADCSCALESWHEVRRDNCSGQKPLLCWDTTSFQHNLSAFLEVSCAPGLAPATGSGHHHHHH
Protocol: as §2

[12] = target: T12, biotinylated human LRRC25-His protein (human, UniProt Q8N386 21-165, biotinylated (sites not given)); assay: ELISA, 20 nM antibody, biotinylated antigen on streptavidin plate
T12 construct: also called Biotin LRRC25-His; biotinylated LRRC25 protein
T12 sequence (Q8N386 other isoform, or with tags, fused parts or gaps): as the sequence (Q8N386 other isoform, or with tags, fused parts or gaps) above
Protocol: as §1

[13] = target: T13, LRRC25(96-115) biotin peptide (human, not fully specified; N-terminal acetyl; C-terminal GGK-Biotin; native Cys changed to Ser); assay: as above
T13 construct: also called Biotin LRRC25 (96-115) peptide
T13 peptide: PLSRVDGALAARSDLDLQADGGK
Protocol: as §1

[14] = target: T13, LRRC25(96-115) biotin peptide; assay: peptide ELISA
Protocol: as §1

Row | Binder | binding result [1] | binding result [2] | binding result [3] | binding result [4] | binding result [5] | binding result [6] | binding result [7] | binding result [8] | binding result [9] | EC50 [10] [nM] | binding result [11] | absorbance (A450) [12] [A450] | absorbance (A450) [13] [A450] | binding result [14]
1 | anti-LRRC25 chimeric antibody 1H09 (antibody, human IgG4, V domains shown) VH: DVQLVESGGGLVKPGGSLKLSCAASGFTFSSYAMSWVRQTPEKRLEWVASISRGGNTYYPDSVKGRFTISRDNARNILYLQMSSLRSEDTAMYYCARGNYGNSPFAYWGQGALVTVSA VL: DVVMTQTPASLAVSLGQRATISCRASESVDSYGNSFMHWYQQKPGQPPKLLIYLASNLESGVPARFSGSGSRTDFTLTIDPVEADDAATYYCQQNNEDPFTFGSGTKLEIKR | no binding (tested: 20 nM) | no binding (tested: 20 nM) | no binding (tested: 20 nM) | no binding (tested: 20 nM) | no binding (tested: 20 nM) | no binding (tested: 20 nM) | no binding (tested: 20 nM) | no binding (tested: 20 nM) | no binding (tested: 20 nM) | 1.5 | no binding (tested: 500 nM) | 0.564 | 0.631 | –
2 | anti-LRRC25 chimeric antibody 1H04 (antibody, human IgG4, V domains shown) VH: EVQLVESGGGLVKPGGSLKLSCAASGFTFSNSAMSWVRQTPEKRLEWVASISRGGKTYYPDSVKGRFTISRDNARNILYLQMSSLRSEDTAMYYCARGQELRLFAYWGQGTLVTVSA VL: DIVMTQDAFSNPVTLGTSASISCRSSKSLLHSNGITYLYWYLQKPGQSPQLLIYQMSNLASGVPDRFSSSGSGTDFTLRISRVEAEDVGVYYCAQNLELPFTFGSGTKLEIKR | no binding (tested: 20 nM) | no binding (tested: 20 nM) | no binding (tested: 20 nM) | no binding (tested: 20 nM) | no binding (tested: 20 nM) | no binding (tested: 20 nM) | no binding (tested: 20 nM) | no binding (tested: 20 nM) | no binding (tested: 20 nM) | 0.44 | no binding (tested: 500 nM) | 1.24 | 2.58 | –
3 | anti-LRRC25 chimeric antibody 1A03 (antibody, human IgG4, V domains shown) VH: EVQLVESGGGLVKPGGSLKLSCAASGFTFSSSAVSWVRQTPEKRLEWVASISRGGNTYYPDSVKGRFTISRDNARNILYLQMSSLRSEDTAMYYCARGQELRLFAYWGQGTLVTVSA VL: DIVMTQAAFSNPVTLGTSASISCRSSKSLLHSNGITYLYWYLQKPGQSPQLLIYQMSNLASGVPDRFSSSGSGTDFTLRISRVEAEDVGVYYCAQNLELPPTFGGGTKLEIKR | no binding (tested: 20 nM) | no binding (tested: 20 nM) | no binding (tested: 20 nM) | no binding (tested: 20 nM) | no binding (tested: 20 nM) | no binding (tested: 20 nM) | no binding (tested: 20 nM) | no binding (tested: 20 nM) | no binding (tested: 20 nM) | 6.4 | no binding (tested: 500 nM) | 0.37 | 0.478 | –
4 | anti-LRRC25 chimeric antibody 3F06 (antibody, human IgG4, V domains shown) VH: DVMLVESGGGLVKPGGSLKLSCAASGFTFSSYAMSWVRQTPDKRLEWVASISSSGNTYYPDTMKGRFTISRDNARNILYLQMSSLRSEDTAMYYCARGLTGTLFAYWGQGTLVTVSA VL: DIVMTQDAPSVPVTPGESVSISCRSSKSLLHSNGITFLYWFLQKPGQSPQLLIYQMSNLASGVPDRFSSSGSGTDFTLRISRVEAEDVGVYYCAQNLELPFTFGSGTKLEIGR | no binding (tested: 20 nM) | no binding (tested: 20 nM) | no binding (tested: 20 nM) | no binding (tested: 20 nM) | no binding (tested: 20 nM) | no binding (tested: 20 nM) | no binding (tested: 20 nM) | no binding (tested: 20 nM) | no binding (tested: 20 nM) | 1.9 | no binding (tested: 500 nM) | 1.23 | 2.8 | –

More lines, now with the values ahead:

Row | binding result [1] | binding result [2] | binding result [3] | binding result [4] | binding result [5] | binding result [6] | binding result [7] | binding result [8] | binding result [9] | EC50 [10] [nM] | binding result [11] | absorbance (A450) [12] [A450] | absorbance (A450) [13] [A450] | binding result [14] | Binder
5 | no binding (tested: 20 nM) | no binding (tested: 20 nM) | no binding (tested: 20 nM) | no binding (tested: 20 nM) | no binding (tested: 20 nM) | no binding (tested: 20 nM) | no binding (tested: 20 nM) | no binding (tested: 20 nM) | no binding (tested: 20 nM) | 8.3 | no binding (tested: 500 nM) | 0.507 | 0.782 | – | anti-LRRC25 chimeric antibody 1F01 (antibody, human IgG4, V domains shown, also called ATCC PTA-126025) VH: EVKLEESGGGLVKPGGSLKLSCAASGFTFSNYAMSWVRQTPEKRLEWVASISRGGNTYYPDSVKGRFTISRDNARNILYLQMSSLRSEDTATYFCTKGNYGSSPFAYWGQGTLVTVSA VL: DIQMTQSPASLSASVGETVTITCRASENIYSYLAWYQQKQGKSPQLLVYNAKTLAEGVPSRFSGSGSGTQFSLKINSLQPEDFGSYYCQHHYGTPFTFGSGTKLEIKR
6 | no binding (tested: 20 nM) | no binding (tested: 20 nM) | no binding (tested: 20 nM) | no binding (tested: 20 nM) | no binding (tested: 20 nM) | no binding (tested: 20 nM) | no binding (tested: 20 nM) | no binding (tested: 20 nM) | no binding (tested: 20 nM) | – | – | 2.6 | 0.049 | no binding (tested: 20 nM) | anti-LRRC25 chimeric antibody 2G02 (antibody, human IgG4, V domains shown) VH: QVTLKESGPGILQPSQTLSLTCSFSGFSLSTSGMGVSWIRQPSGKGLEWLAHIYWDDDKRYNPSLKSRLTISKDTSSNQVFLKITSVDTADTATYYCARRHRDYDSRGHWYFGVWGAGTTVTVSS VL: DVVMTQTPKSMSMSVGERVTLSCKASENVGTYVSWYQQKPEQSPKLLIYGASNRYTGVPDRFTGSGSATDFTLTISSVQAEDLADYHCGQSYNYPFTFGGGTKLEIKR
